Assay results: US20220220224A1 (Hoffmann-La Roche, published 2022)
Changes are numbered by the printed parent chain.

B1: 15A1 Fab (Fab, V domains shown)
VH: QVQLVQSGAEVKKPGASVKVSCKASGYTFTSYYMHWVRQAPGQGLEWMGIINPSGGSTSYAQKFQGRVTMTRDTSTSTVYMELSSLRSEDTAVYYCARNYYIGVVTFDYWGQGTLVTVSS
VL: QAVVTQEPSLTVSPGGTVTLTCGSSTGAVTTSNYANWVQEKPGQAFRGLIGGTNKRAPGTPARFSGSLLGGKAALTLSGAQPEDEAEYYCALWYSNLWVFGGGTKLTVL
notes: bacterial Fab
B2: 18D3 Fab (Fab, V domains shown)
VH: QVQLVQSGAEVKKPGASVKVSCKASGYTFTSYYMHWVRQAPGQGLEWMGIINPSGGSTSYAQKFQGRVTMTRDTSTSTVYMELSSLRSEDTAVYYCARNYYTGGSSAFDYWGQGTLVTVS
VL: B1 VL
notes: bacterial Fab
B3: 16A3 Fab (Fab, V domains shown)
VH: B1 VH with I102A, V105T, T106P
VL: B1 VL
notes: bacterial Fab
B4: 21D1 Fab (Fab, V domains shown)
VH: B1 VH with I102V, V105S, T106P
VL: B1 VL
notes: bacterial Fab
B5: 20G6 Fab (Fab, V domains shown)
VH: B1 VH with N99G, Y100E, Y101W, G103R, V104Y, V105Y, T106H
VL: B1 VL
notes: bacterial Fab
B6: 19H3 Fab (Fab, V domains shown)
VH: B1 VH with N99T, Y100G, Y101W, I102S, G103R, V104W, V105G, T106Y, F107M
VL: B1 VL
notes: bacterial Fab
B7: 16D5 Fab (Fab, V domains shown)
VH: not shown
VL: B1 VL
notes: bacterial Fab
B8: 21A5 Fab (Fab, V domains shown)
VH: not shown
VL: B1 VL
notes: bacterial Fab
B9: 21G8 Fab (Fab, V domains shown)
VH: not shown
VL: B1 VL
notes: bacterial Fab
B10: 15B6 IgG (antibody, V domains shown)
VH: B1 VH with V104I, T106P
VL: B1 VL
notes: human IgG1
B11: 16F12 IgG (antibody, V domains shown)
VH: B1 VH with Y100F, Y101T, I102V, G103L, V104R, T106P
VL: B1 VL
notes: human IgG1
B12: 21G8 IgG (antibody, V domains shown)
VH: not shown
VL: B1 VL
notes: human IgG1
B13: 5D9 IgG (antibody, V domains shown)
VH: QVQLVQSGAEVKKPGASVKVSCKASGYTFTSYYMHWVRQAPGQGLEWMGIINPSGGSTSYAQKFQGRVTMTRDTSTSTVYMELSSLRSEDTAVYYCARSYIDMDYWGQGTLVTVSS
VL: EIVLTQSPGTLSLSPGERATLSCRASQSVSSSYLAWYQQKPGQAPRLLIYGASSRATGIPDRFSGSGSGTDFTLTISRLEPEDFAVYYCQQDNWSPTFGQGTKVEIK
notes: human IgG1
B14: 6B6 IgG (antibody, V domains shown)
VH: B13 VH with I101V
VL: B13 VL with N93I
notes: human IgG1
B15: 11F8 Fab (Fab, V domains shown)
VH: QVQLVQSGAEVKKPGSSVKVSCKASGGTFSSYAISWVRQAPGQGLEWMGGIIPIFGTANYAQKFQGRVTITADKSTSTAYMELSSLRSEDTAVYYCARAVFYRAWYSFDYWGQGTTVTVSS
VL: DIQMTQSPSTLSASVGDRVTITCRASQSISSWLAWYQQKPGKAPKLLIYDASSLESGVPSRFSGSGSGTEFTLTISSLQPDDFATYYCQQYTSPPPTFGQGTKVEIK
notes: bacterial Fab
B16: 5D9 Fab (Fab, V domains shown)
VH: B13 VH
VL: B13 VL
notes: bacterial Fab
B17: 6B6 Fab (Fab, V domains shown)
VH: B13 VH with I101V
VL: B13 VL with N93I
notes: bacterial Fab

target: T1, recombinant biotinylated monomeric Fc fusion of cynomolgus Folate Receptor 1 (cy FolR1 ECD-AcTev-Fcknob-Avi … (cynomolgus, UniProt P0DOX5 223-449 = IgG part, biotin on the C-terminal Avi tag)); test: SPR ProteOn, Fab analyte on immobilized antigen-Fc
T1 construct: also called cyFolR1-Fc; cyno FolR1
Protocol: (§1) Immobilization of antigens (ligand): Recombinant antigens were diluted with PBST (10 mM phosphate, 150 mM sodium chloride pH 7.4, 0.005% Tween 20) to 10 μg/ml, then injected at 30 μl/minute in vertical orientation. Injection of analytes: For ‘one-shot kinetics’ measurements, injection direction was changed to horizontal orientation, two-fold dilution series of purified Fab (varying concentration ranges) were injected simultaneously along separate channels 1-5, with association times of 200 s, and dissociation times of 600 s. Buffer (PBST) was injected along the sixth channel to provide an “in-line” blank for referencing. Association rate constants (kₒₙ) and dissociation rate constants (koff) were calculated using a simple one-to-one Langmuir binding model in ProteOn Manager v3.1 software by simultaneously fitting the association and dissociation sensorgrams. The equilibrium dissociation constant (KD) was calculated as the ratio koff/kₒₙ.

Binder | Kd [nM] | binding result
B1 | 17.3 | 
B2 | 40.2 | 
B3 | 18 | 
B4 | 32.1 | 
B5 |  | no binding
B6 |  | no binding

target: T2, recombinant biotinylated monomeric Fc fusion of human Folate Receptor 3 (hu FolR3 ECD-AcTev-Fcknob-Avi tag … (human, UniProt P0DOX5 223-449 = IgG part, biotin on the C-terminal Avi tag)); test: SPR ProteOn, Fab analyte on immobilized antigen-Fc
T2 construct: also called FolR3-Fc
Protocol: as §1

Binder | binding result
B1 | no binding
B2 | no binding
B7 | no binding
B3 | no binding
B4 | no binding
B5 | no binding
B6 | no binding

target: T3, recombinant biotinylated monomeric Fc fusion of human Folate Receptor 1 (huFolR1 ECD-AcTev-Fcknob-Avi tag … (human, UniProt P0DOX5 223-449 = IgG part, biotin on the C-terminal Avi tag)); test: SPR ProteOn, Fab analyte on immobilized antigen-Fc
T3 construct: also called huFolR1-Fc; human FolR1-Fc
Protocol: as §1

Binder | Kd [nM] | binding result
B1 | 30.9 | 
B2 | 93.6 | 
B3 | 21.7 | 
B4 | 62.6 | 
B5 |  | no binding
B6 |  | no binding

target: T4, recombinant biotinylated monomeric Fc fusion of human Folate Receptor 2 (hu FolR2 ECD-AcTev-Fcknob-Avi tag … (human, UniProt P0DOX5 223-449 = IgG part, biotin on the C-terminal Avi tag)); test: SPR ProteOn, Fab analyte on immobilized antigen-Fc
T4 construct: also called FolR2-Fc
Protocol: as §1

Binder | binding result
B1 | no binding
B2 | no binding
B7 | no binding
B8 | no binding
B3 | no binding
B4 | no binding
B5 | no binding
B6 | no binding

target: T5, recombinant biotinylated monomeric Fc fusion of murine Folate Receptor 1 (mu FolR1 ECD-AcTev-Fcknob-Avitag … (murine, UniProt P0DOX5 223-449 = IgG part, biotin on the C-terminal Avi tag)); test: SPR ProteOn, Fab analyte on immobilized antigen-Fc
T5 construct: also called muFolR1-Fc; murine FolR1
Protocol: as §1

Binder | binding result
B7 | no binding
B8 | no binding
B9 | no binding

target: T2, recombinant biotinylated monomeric Fc …; test: SPR Biacore, single injection on immobilized antigen-Fc
Protocol: (§2) Binding of FolR1 binders as IgG or in the T-cell bispecific format to different recombinant folate receptors (human FolR1, 2 and 3, murine FolR1 and cynomolgus FolR1; all as Fc fusions) was assessed by surface plasmon resonance (SPR). All SPR experiments were performed on a Biacore T200 at 25° C. with HBS-EP as running buffer (0.01 M HEPES pH 7.4, 0.15 M NaCl, 3 mM EDTA, 0.005% Surfactant P20, Biacore, Freiburg/Germany).
(§3) First the anti-FolR1 IgGs were analyzed by single injections (Table 1) to characterize their crossreactivity (to human, murine and cyno FolR1) and specificity (to human FolR1, human FolR2, human FolR3). Recombinant biotinylated monomeric Fc fusions of human, cynomolgus and murine Folate Receptor 1 (FolR1-Fc) or human Folate Receptor 2 and 3 (FolR2-Fc, FolR3-Fc) were directly coupled on a SA chip using the standard coupling instruction (Biacore, Freiburg/Germany). The immobilization level was about 300-400 RU. The IgGs were injected for 60 seconds at a concentration of 500 nM.

Binder | binding result
B10 | no binding (tested: 500 nM)
B11 | no binding (tested: 500 nM)

target: T4, recombinant biotinylated monomeric Fc …; test: as above
Protocol: as §2, §3

Binder | binding result
B10 | no binding (tested: 500 nM)
B11 | no binding (tested: 500 nM)

target: T5, recombinant biotinylated monomeric Fc …; test: as above
Protocol: as §2, §3

Binder | binding result
B10 | no binding (tested: 500 nM)
B11 | no binding (tested: 500 nM)
B12 | no binding (tested: 500 nM)
B13 | no binding (tested: 500 nM)
B14 | no binding (tested: 500 nM)

target: T5, recombinant biotinylated monomeric Fc …; test: SPR ProteOn, Fab analyte on immobilized antigen-Fc; remark: another data set of the same source
Protocol: Immobilization of antigens (ligand): Recombinant antigens were diluted with PBST (10 mM phosphate, 150 mM sodium chloride pH 7.4, 0.005% Tween 20) to 10 μg/ml, then injected at 30 μl/minute in vertical orientation. Injection of analytes: For ‘one-shot kinetics’ measurements, injection direction was changed to horizontal orientation, two-fold dilution series of purified Fab (varying concentration ranges) were injected simultaneously along separate channels 1-5, with association times of 150 or 200 s, and dissociation times of 200 or 600 s, respectively. Buffer (PBST) was injected along the sixth channel to provide an “in-line” blank for referencing. Association rate constants (kₒₙ) and dissociation rate constants (koff) were calculated using a simple one-to-one Langmuir binding model in ProteOn Manager v3.1 software by simultaneously fitting the association and dissociation sensorgrams. The equilibrium dissociation constant (KD) was calculated as the ratio koff/kₒₙ.

Binder | Kd [nM] | binding result
B15 | 1200 | 
B16 |  | no binding
B17 |  | no binding
